Assay results reported in US20160153020A1 (GLYCOTREK, published 2016).

Target: T1, DC-SIGN (human lectin receptor) expressed on a recombinant HEK cell line (human, UniProt Q9NNX6 1-404)
T1 construct: whole, on cells; The construct in the HEK cell line is not described
T1 sequence (looked up): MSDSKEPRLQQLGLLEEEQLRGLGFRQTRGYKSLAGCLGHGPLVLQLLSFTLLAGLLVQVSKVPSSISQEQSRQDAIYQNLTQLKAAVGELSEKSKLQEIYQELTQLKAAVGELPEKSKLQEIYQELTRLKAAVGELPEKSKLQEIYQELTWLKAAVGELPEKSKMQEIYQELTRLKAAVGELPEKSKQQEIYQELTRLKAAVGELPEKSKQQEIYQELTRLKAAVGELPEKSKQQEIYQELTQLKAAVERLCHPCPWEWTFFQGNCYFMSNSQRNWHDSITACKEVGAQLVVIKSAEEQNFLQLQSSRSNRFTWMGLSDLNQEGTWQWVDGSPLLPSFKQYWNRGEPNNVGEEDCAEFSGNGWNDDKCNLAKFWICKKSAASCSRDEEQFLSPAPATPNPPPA
Assay: binding to recombinant HEK cells expressing DC-SIGN (method not described)

B1: infliximab produced in CHO cell lines (antibody, V domains shown)
VH: EVKLEESGGGLVQPGGSMKLSCVASGFIFSNHWMNWVRQSPEKGLEWVAEIRSKSINSATHYAESVKGRFTISRDDSKSAVYLQMTDLRTEDTGVYYCSRNYYGSTYDYWGQGTTLTVSA
VL: DILLTQSPAILSVSPGERVSFSCRASQFVGSSIHWYQQRTNGSPRLLIKYASESMSGIPSRFSGSGSGTDFTLSINTVESEDIADYYCQQSHSWPFTFGSGTNLEVKR
modifications: single N-glycosylation site at position Asn297 ; chain 1 pos 300: Asn297 (EU) carries the single N-glycan; the glycoform depends on the CHO line (Inf or Inf-Sial)
  binding result: no binding
